In general, EC50 refers to the concentration giving half of the maximal effect. For orientation: stoichiometry N means a count of units in the complex or per binding partner.

Data set [1] deals with T1, human soluble recombinant PSGL1 fused to human Fc (human, UniProt Q14242 18-320).
T1 construct: P-selectin glycoprotein ligand-1 (PSGL1), human, soluble ectodomain; Sialylated glycoprotein; also called sPSGL1/Fc; soluble PSGL1/Fc; source: bought: R&D Systems (cat# 3345-PS)
T1 sequence (looked up): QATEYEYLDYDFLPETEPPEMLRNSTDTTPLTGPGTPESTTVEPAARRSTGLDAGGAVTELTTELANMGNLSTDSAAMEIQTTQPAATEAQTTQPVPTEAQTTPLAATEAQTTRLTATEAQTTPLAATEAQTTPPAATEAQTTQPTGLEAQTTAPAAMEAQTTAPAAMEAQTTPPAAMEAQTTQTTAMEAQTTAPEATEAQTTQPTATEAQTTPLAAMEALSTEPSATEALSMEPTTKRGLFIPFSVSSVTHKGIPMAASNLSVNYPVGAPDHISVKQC
The experiment in a line: ELISA; sPSGL1/Fc (0.25 μg/well) adsorbed to microtiter wells; Tris-buffered saline with 2.5 mM CaCl2, 0.1% Tween-20, 3% BSA; bound sSiglec-5 probed with biotin-labeled polyclonal anti-Siglec-5 antibodies, bound P-selectin with a monoclonal anti-P-selectin antibody; controls with EDTA (5 mM) or polyclonal anti-Siglec-5 antibodies (6 μM) inhibited binding. The conditions noted are these: both partners purified.

Data set [2] concerns the molecule itself. The data set can be described thus: SDS-PAGE under non-reduced and reduced conditions; purified sSiglec-5/C4BP, Coomassie-staining; about 525 kDa non-reduced, 75 kDa reduced; heptamer to single chains.

B1: heptameric Siglec-5/C4BP fusion protein (other, UniProt O15389 17-434, looked up)
chain: EKPVYELQVQKSVTVQEGLCVLVPCSFSYPWRSWYSSPPLYVYWFRDGEIPYYAEVVATNNPDRRVKPETQGRFRLLGDVQKKNCSLSIGDARMEDTGSYFFRVERGRDVKYSYQQNKLNLEVTALIEKPDIHFLEPLESGRPTRLSCSLPGSCEAGPPLTFSWTGNALSPLDPETTRSSELTLTPRPEDHGTNLTCQMKRQGAQVTTERTVQLNVSYAPQTITIFRNGIALEILQNTSYLPVLEGQALRLLCDAPSNPPAHLSWFQGSPALNATPISNTGILELRRVRSAEEGGFTCRAQHPLGFLQIFLNLSVYSLPQLLGPSCSWEAEGLHCRCSFRARPAPSLCWRLEEKPLEGNSSQGSFKVNSSSAGPWANSSLILHGGLSSDLKVSCKAWNIYGSQSGSVLLLQGRSNLGTETPEGCEQVLTGKRLMQCLPNPEDVKMALEVYKLSLEIEQLELQRDSARQSTLDKEL
notes: Siglec-5 ectodomain, residues 17-434; also called sSiglec-5/C4BP; sSg-5/C4BP
In the case of B1, the EC50 in data set [1] was 8 ± 1 nM. For the same molecule, the “stoichiometry N” value in data set [2] stood at 7.

B2: Recombinant soluble Siglec-5 fused to human Fc (Fc fusion, UniProt O15389 17-441, looked up)
chain: EKPVYELQVQKSVTVQEGLCVLVPCSFSYPWRSWYSSPPLYVYWFRDGEIPYYAEVVATNNPDRRVKPETQGRFRLLGDVQKKNCSLSIGDARMEDTGSYFFRVERGRDVKYSYQQNKLNLEVTALIEKPDIHFLEPLESGRPTRLSCSLPGSCEAGPPLTFSWTGNALSPLDPETTRSSELTLTPRPEDHGTNLTCQMKRQGAQVTTERTVQLNVSYAPQTITIFRNGIALEILQNTSYLPVLEGQALRLLCDAPSNPPAHLSWFQGSPALNATPISNTGILELRRVRSAEEGGFTCRAQHPLGFLQIFLNLSVYSLPQLLGPSCSWEAEGLHCRCSFRARPAPSLCWRLEEKPLEGNSSQGSFKVNSSSAGPWANSSLILHGGLSSDLKVSCKAWNIYGSQSGSVLLLQGRSNLGTGVVPAAL
notes: Siglec-5, soluble; also called sSiglec-5/Fc; sSg-5/Fc; source: bought: R&D Systems (cat# 1072-SL), produced in mouse myeloma cell-line NS0
On to B2, for which the half-maximal effective concentration (EC50) in data set [1] turned out to be 49 ± 11 nM.

The values are drawn from paper PMC5125011, “Soluble Siglec-5 associates to PSGL-1 and displays anti-inflammatory activity” (Scientific Reports, 2016).
